Experimental data published in patent US10533167.

Tests used:
Experiment in all cases: cell-based or functional assay
[1] = target: optoFUS (N-terminal IDR of FUS fused to mCherry-labeled Cry2 PHR, Cry2WT) (human; Arabidopsis thaliana) (UniProt Q96524)
[2] = target: FUSN-Cry2olig (N-terminal IDR of FUS fused to mCherry-labeled Cry2olig, Cry2 E490G) (human; Arabidopsis thaliana) (UniProt Q96524)
[3] = target: optoDDX4 (N-terminal IDR of Ddx4 fused to mCherry-labeled Cry2WT) (human; Arabidopsis thaliana) (UniProt Q96524)

## optoFUS (N-terminal IDR of FUS fused to mCherry-labeled Cry2 PHR, Cry2WT) (from UniProt Q96524 1-498)
[1]
  saturation concentration (Csat) for light-activated phase separation in NIH 3T3 cells: 1.4 µM

## FUSN-Cry2olig (N-terminal IDR of FUS fused to mCherry-labeled Cry2olig, Cry2 E490G) (from UniProt Q96524 1-498)
[2]
  saturation concentration for light-activated clustering, relative to optoFUS (fold lower than optoFUS): 5

## optoDDX4 (N-terminal IDR of Ddx4 fused to mCherry-labeled Cry2WT) (from UniProt Q96524 1-498)
[3]
  saturation concentration (Csat) for light-activated phase separation, relative to optoFUS (fold lower than optoFUS): 2
